According to patent US20230406885A1, “CYCLIC PEPTIDES FOR TRAPPING INTERLEUKIN-1 BETA” (MERCK SHARP & DOHME LLC, priority 2022, published 2023):
*1 amine or outer side, *2 acyl side, *3 side chain or, on linkers, in order; H or OH if unused. [ ]: non-standard residue; d: D form. 3AzaPhe4AcPip = (S)-3-(6-(4-acetylpiperazin-1-yl)pyridin-3-yl)-2-aminopropanoic acid, CC(=O)N1CCN(c2ccc(C[C@H](N[*:1])C(=O)[*:2])cn2)CC1; Pro(trans-4-NH2) = O=C([C@@H]1C[C@@H](N[*:3])CN1[*:1])[*:2]; Bip(4'-COOH) = N[C@@H](Cc1ccc(-c2ccc(C(=O)O)cc2)cc1)C(=O)O; 1Nal(3S-Me) = C[C@@H](c1cccc2ccccc12)[C@H](N)C(=O)O; Phe(4-COOH) = N[C@@H](Cc1ccc(C(=O)O)cc1)C(=O)O; h3Pal(5-CN) = N#Cc1cncc(CC[C@H](N)C(=O)O)c1; 1Nal = N[C@@H](Cc1cccc2ccccc12)C(=O)O; Ala(4-THP) = N[C@@H](CC1CCOCC1)C(=O)O; hTyr = N[C@@H](CCc1ccc(O)cc1)C(=O)O; 4Pal = N[C@@H](Cc1ccncc1)C(=O)O; Orn = NCCC[C@H](N)C(=O)O; dNMeA = CN[C@H](C)C(=O)O; Dab = NCC[C@H](N)C(=O)O; Dap = NC[C@H](N)C(=O)O; Aib = CC(C)(N)C(=O)O

B1: SEQ ID NO: 16 (peptide)
peptide: cyclo([Bip(4'-COOH)]W[Phe(4-COOH)]G[Pro(trans-4-NH2)][1Nal(3S-Me)]D[dNMeA]G[Bip(4'-COOH)][1Nal][Dab][Aib][hTyr])
SMILES: C[C@@H]1C(=O)NCC(=O)N[C@@H](Cc2ccc(-c3ccc(C(=O)O)cc3)cc2)C(=O)N[C@@H](Cc2cccc3ccccc23)C(=O)N[C@@H](CCN)C(=O)NC(C)(C)C(=O)N[C@@H](CCc2ccc(O)cc2)C(=O)N[C@@H](Cc2ccc(-c3ccc(C(=O)O)cc3)cc2)C(=O)N[C@@H](Cc2c[nH]c3ccccc23)C(=O)N[C@@H](Cc2ccc(C(=O)O)cc2)C(=O)NCC(=O)N2C[C@H](N)C[C@H]2C(=O)N[C@@H]([C@@H](C)c2cccc3ccccc23)C(=O)N[C@@H](CC(=O)O)C(=O)N1C
B2: SEQ ID NO: 17 (peptide)
peptide: cyclo([Bip(4'-COOH)]W[Phe(4-COOH)]G[Pro(trans-4-NH2)][1Nal(3S-Me)]D[dNMeA]G[Bip(4'-COOH)][1Nal][Dap][Aib]G)
SMILES: C[C@@H]1C(=O)NCC(=O)N[C@@H](Cc2ccc(-c3ccc(C(=O)O)cc3)cc2)C(=O)N[C@@H](Cc2cccc3ccccc23)C(=O)N[C@@H](CN)C(=O)NC(C)(C)C(=O)NCC(=O)N[C@@H](Cc2ccc(-c3ccc(C(=O)O)cc3)cc2)C(=O)N[C@@H](Cc2c[nH]c3ccccc23)C(=O)N[C@@H](Cc2ccc(C(=O)O)cc2)C(=O)NCC(=O)N2C[C@H](N)C[C@H]2C(=O)N[C@@H]([C@@H](C)c2cccc3ccccc23)C(=O)N[C@@H](CC(=O)O)C(=O)N1C
B3: SEQ ID NO: 18 (peptide)
peptide: cyclo([Bip(4'-COOH)]W[Phe(4-COOH)]G[Pro(trans-4-NH2)][1Nal(3S-Me)]D[dNMeA]G[Bip(4'-COOH)][1Nal][Dap][Aib][h3Pal(5-CN)])
SMILES: C[C@@H]1C(=O)NCC(=O)N[C@@H](Cc2ccc(-c3ccc(C(=O)O)cc3)cc2)C(=O)N[C@@H](Cc2cccc3ccccc23)C(=O)N[C@@H](CN)C(=O)NC(C)(C)C(=O)N[C@@H](CCc2cncc(C#N)c2)C(=O)N[C@@H](Cc2ccc(-c3ccc(C(=O)O)cc3)cc2)C(=O)N[C@@H](Cc2c[nH]c3ccccc23)C(=O)N[C@@H](Cc2ccc(C(=O)O)cc2)C(=O)NCC(=O)N2C[C@H](N)C[C@H]2C(=O)N[C@@H]([C@@H](C)c2cccc3ccccc23)C(=O)N[C@@H](CC(=O)O)C(=O)N1C
B4: SEQ ID NO: 19 (peptide)
peptide: cyclo([Bip(4'-COOH)]W[Phe(4-COOH)]G[Pro(trans-4-NH2)][1Nal(3S-Me)]D[dNMeA]G[Bip(4'-COOH)][1Nal]L[Aib]G)
SMILES: CC(C)C[C@@H]1NC(=O)[C@H](Cc2cccc3ccccc23)NC(=O)[C@H](Cc2ccc(-c3ccc(C(=O)O)cc3)cc2)NC(=O)CNC(=O)[C@@H](C)N(C)C(=O)[C@H](CC(=O)O)NC(=O)[C@H]([C@@H](C)c2cccc3ccccc23)NC(=O)[C@@H]2C[C@@H](N)CN2C(=O)CNC(=O)[C@H](Cc2ccc(C(=O)O)cc2)NC(=O)[C@H](Cc2c[nH]c3ccccc23)NC(=O)[C@H](Cc2ccc(-c3ccc(C(=O)O)cc3)cc2)NC(=O)CNC(=O)C(C)(C)NC1=O
B5: SEQ ID NO: 2 (peptide)
peptide: cyclo([3AzaPhe4AcPip]W[Phe(4-COOH)]G[Pro(trans-4-NH2)][1Nal(3S-Me)]D[dNMeA]G[Bip(4'-COOH)]KL[dA][h3Pal(5-CN)])
SMILES: CC(=O)N1CCN(c2ccc(C[C@@H]3NC(=O)[C@H](CCc4cncc(C#N)c4)NC(=O)[C@@H](C)NC(=O)[C@H](CC(C)C)NC(=O)[C@H](CCCCN)NC(=O)[C@H](Cc4ccc(-c5ccc(C(=O)O)cc5)cc4)NC(=O)CNC(=O)[C@@H](C)N(C)C(=O)[C@H](CC(=O)O)NC(=O)[C@H]([C@@H](C)c4cccc5ccccc45)NC(=O)[C@@H]4C[C@@H](N)CN4C(=O)CNC(=O)[C@H](Cc4ccc(C(=O)O)cc4)NC(=O)[C@H](Cc4c[nH]c5ccccc45)NC3=O)cn2)CC1
B6: SEQ ID NO: 20 (peptide)
peptide: cyclo([Bip(4'-COOH)]W[Phe(4-COOH)]G[Pro(trans-4-NH2)][1Nal(3S-Me)]D[dNMeA]G[Bip(4'-COOH)][1Nal][Orn][Aib]G)
SMILES: C[C@@H]1C(=O)NCC(=O)N[C@@H](Cc2ccc(-c3ccc(C(=O)O)cc3)cc2)C(=O)N[C@@H](Cc2cccc3ccccc23)C(=O)N[C@@H](CCCN)C(=O)NC(C)(C)C(=O)NCC(=O)N[C@@H](Cc2ccc(-c3ccc(C(=O)O)cc3)cc2)C(=O)N[C@@H](Cc2c[nH]c3ccccc23)C(=O)N[C@@H](Cc2ccc(C(=O)O)cc2)C(=O)NCC(=O)N2C[C@H](N)C[C@H]2C(=O)N[C@@H]([C@@H](C)c2cccc3ccccc23)C(=O)N[C@@H](CC(=O)O)C(=O)N1C
B7: SEQ ID NO: 21 (peptide)
peptide: cyclo([Bip(4'-COOH)]W[Phe(4-COOH)]G[Pro(trans-4-NH2)][1Nal(3S-Me)]D[dNMeA]G[Bip(4'-COOH)][4Pal][Dap][dA][h3Pal(5-CN)])
SMILES: C[C@@H]1C(=O)NCC(=O)N[C@@H](Cc2ccc(-c3ccc(C(=O)O)cc3)cc2)C(=O)N[C@@H](Cc2ccncc2)C(=O)N[C@@H](CN)C(=O)N[C@H](C)C(=O)N[C@@H](CCc2cncc(C#N)c2)C(=O)N[C@@H](Cc2ccc(-c3ccc(C(=O)O)cc3)cc2)C(=O)N[C@@H](Cc2c[nH]c3ccccc23)C(=O)N[C@@H](Cc2ccc(C(=O)O)cc2)C(=O)NCC(=O)N2C[C@H](N)C[C@H]2C(=O)N[C@@H]([C@@H](C)c2cccc3ccccc23)C(=O)N[C@@H](CC(=O)O)C(=O)N1C
B8: SEQ ID NO: 22 (peptide)
peptide: cyclo([Bip(4'-COOH)]W[Phe(4-COOH)]G[Pro(trans-4-NH2)][1Nal(3S-Me)]D[dNMeA]G[Bip(4'-COOH)][4Pal][Dap][dA][hTyr])
SMILES: C[C@@H]1C(=O)NCC(=O)N[C@@H](Cc2ccc(-c3ccc(C(=O)O)cc3)cc2)C(=O)N[C@@H](Cc2ccncc2)C(=O)N[C@@H](CN)C(=O)N[C@H](C)C(=O)N[C@@H](CCc2ccc(O)cc2)C(=O)N[C@@H](Cc2ccc(-c3ccc(C(=O)O)cc3)cc2)C(=O)N[C@@H](Cc2c[nH]c3ccccc23)C(=O)N[C@@H](Cc2ccc(C(=O)O)cc2)C(=O)NCC(=O)N2C[C@H](N)C[C@H]2C(=O)N[C@@H]([C@@H](C)c2cccc3ccccc23)C(=O)N[C@@H](CC(=O)O)C(=O)N1C
B9: SEQ ID NO: 23 (peptide)
peptide: cyclo([Bip(4'-COOH)]W[Phe(4-COOH)]G[Pro(trans-4-NH2)][1Nal(3S-Me)]D[dNMeA]G[Bip(4'-COOH)][Ala(4-THP)][Dap][dA][h3Pal(5-CN)])
SMILES: C[C@@H]1C(=O)NCC(=O)N[C@@H](Cc2ccc(-c3ccc(C(=O)O)cc3)cc2)C(=O)N[C@@H](CC2CCOCC2)C(=O)N[C@@H](CN)C(=O)N[C@H](C)C(=O)N[C@@H](CCc2cncc(C#N)c2)C(=O)N[C@@H](Cc2ccc(-c3ccc(C(=O)O)cc3)cc2)C(=O)N[C@@H](Cc2c[nH]c3ccccc23)C(=O)N[C@@H](Cc2ccc(C(=O)O)cc2)C(=O)NCC(=O)N2C[C@H](N)C[C@H]2C(=O)N[C@@H]([C@@H](C)c2cccc3ccccc23)C(=O)N[C@@H](CC(=O)O)C(=O)N1C
B10: SEQ ID NO: 24 (peptide)
peptide: cyclo([Bip(4'-COOH)]W[Phe(4-COOH)]G[Pro(trans-4-NH2)][1Nal(3S-Me)]D[dNMeA]G[Bip(4'-COOH)][Ala(4-THP)][Dap][dA][hTyr])
SMILES: C[C@@H]1C(=O)NCC(=O)N[C@@H](Cc2ccc(-c3ccc(C(=O)O)cc3)cc2)C(=O)N[C@@H](CC2CCOCC2)C(=O)N[C@@H](CN)C(=O)N[C@H](C)C(=O)N[C@@H](CCc2ccc(O)cc2)C(=O)N[C@@H](Cc2ccc(-c3ccc(C(=O)O)cc3)cc2)C(=O)N[C@@H](Cc2c[nH]c3ccccc23)C(=O)N[C@@H](Cc2ccc(C(=O)O)cc2)C(=O)NCC(=O)N2C[C@H](N)C[C@H]2C(=O)N[C@@H]([C@@H](C)c2cccc3ccccc23)C(=O)N[C@@H](CC(=O)O)C(=O)N1C
B11: SEQ ID NO: 25 (peptide)
peptide: cyclo([Bip(4'-COOH)]W[Phe(4-COOH)]G[Pro(trans-4-NH2)][1Nal(3S-Me)]D[dNMeA]G[Bip(4'-COOH)]KL[dA][hTyr])
SMILES: CC(C)C[C@@H]1NC(=O)[C@H](CCCCN)NC(=O)[C@H](Cc2ccc(-c3ccc(C(=O)O)cc3)cc2)NC(=O)CNC(=O)[C@@H](C)N(C)C(=O)[C@H](CC(=O)O)NC(=O)[C@H]([C@@H](C)c2cccc3ccccc23)NC(=O)[C@@H]2C[C@@H](N)CN2C(=O)CNC(=O)[C@H](Cc2ccc(C(=O)O)cc2)NC(=O)[C@H](Cc2c[nH]c3ccccc23)NC(=O)[C@H](Cc2ccc(-c3ccc(C(=O)O)cc3)cc2)NC(=O)[C@H](CCc2ccc(O)cc2)NC(=O)[C@@H](C)NC1=O
B12: SEQ ID NO: 26 (peptide)
peptide: cyclo([Bip(4'-COOH)]W[Phe(4-COOH)]G[Pro(trans-4-NH2)][1Nal(3S-Me)]D[dNMeA]G[Bip(4'-COOH)]KL[dS][hTyr])
SMILES: CC(C)C[C@@H]1NC(=O)[C@H](CCCCN)NC(=O)[C@H](Cc2ccc(-c3ccc(C(=O)O)cc3)cc2)NC(=O)CNC(=O)[C@@H](C)N(C)C(=O)[C@H](CC(=O)O)NC(=O)[C@H]([C@@H](C)c2cccc3ccccc23)NC(=O)[C@@H]2C[C@@H](N)CN2C(=O)CNC(=O)[C@H](Cc2ccc(C(=O)O)cc2)NC(=O)[C@H](Cc2c[nH]c3ccccc23)NC(=O)[C@H](Cc2ccc(-c3ccc(C(=O)O)cc3)cc2)NC(=O)[C@H](CCc2ccc(O)cc2)NC(=O)[C@@H](CO)NC1=O

The binders below were run against Recombinant human IL-1β (BioLegend 579404) (human, UniProt P01584 117-269) (assay: cell-based or functional assay).

Row | Binder | MRC5 IC50 [nM]
1 | B1 | 0.175
2 | B2 | 0.222
3 | B3 | 0.0885
4 | B4 | 0.118
5 | B5 | 0.0217
6 | B6 | 0.44
7 | B7 | 0.0234
8 | B8 | 0.0325
9 | B9 | 0.0112
10 | B10 | 0.0291
11 | B11 | 0.0542
12 | B12 | 0.0688
